Results: patent US20240239878A1 (SHANGHAI QILU PHARMACEUTICAL RESEARCH AND DEVELOPMENT CENTRE, published 2024)
Residue numbers refer to the chain shown, from its start.

T1: human DLL1 (Sino Biological, Cat. No. 11635-H08H) (human, UniProt O00548 18-545)
T1 construct: also called family protein DLL1
T1 sequence: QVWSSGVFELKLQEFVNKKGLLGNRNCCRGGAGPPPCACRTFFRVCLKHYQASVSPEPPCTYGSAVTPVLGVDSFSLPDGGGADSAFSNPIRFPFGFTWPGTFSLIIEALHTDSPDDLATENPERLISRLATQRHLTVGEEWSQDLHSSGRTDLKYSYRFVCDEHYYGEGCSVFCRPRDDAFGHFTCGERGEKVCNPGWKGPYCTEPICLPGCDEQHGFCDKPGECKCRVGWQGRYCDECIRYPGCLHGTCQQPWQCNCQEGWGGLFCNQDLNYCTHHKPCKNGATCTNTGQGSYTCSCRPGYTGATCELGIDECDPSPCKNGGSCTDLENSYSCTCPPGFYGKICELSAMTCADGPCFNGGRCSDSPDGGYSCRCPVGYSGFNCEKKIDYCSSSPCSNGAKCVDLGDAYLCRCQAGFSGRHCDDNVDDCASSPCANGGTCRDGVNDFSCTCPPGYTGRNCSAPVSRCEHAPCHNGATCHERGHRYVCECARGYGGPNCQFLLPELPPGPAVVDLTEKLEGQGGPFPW

T2: human DLL3 on SHP-77 cells (human, UniProt Q9NYJ7 27-618)
T2 construct: also called DLL3-expressing cells (SHP-77)
T2 sequence: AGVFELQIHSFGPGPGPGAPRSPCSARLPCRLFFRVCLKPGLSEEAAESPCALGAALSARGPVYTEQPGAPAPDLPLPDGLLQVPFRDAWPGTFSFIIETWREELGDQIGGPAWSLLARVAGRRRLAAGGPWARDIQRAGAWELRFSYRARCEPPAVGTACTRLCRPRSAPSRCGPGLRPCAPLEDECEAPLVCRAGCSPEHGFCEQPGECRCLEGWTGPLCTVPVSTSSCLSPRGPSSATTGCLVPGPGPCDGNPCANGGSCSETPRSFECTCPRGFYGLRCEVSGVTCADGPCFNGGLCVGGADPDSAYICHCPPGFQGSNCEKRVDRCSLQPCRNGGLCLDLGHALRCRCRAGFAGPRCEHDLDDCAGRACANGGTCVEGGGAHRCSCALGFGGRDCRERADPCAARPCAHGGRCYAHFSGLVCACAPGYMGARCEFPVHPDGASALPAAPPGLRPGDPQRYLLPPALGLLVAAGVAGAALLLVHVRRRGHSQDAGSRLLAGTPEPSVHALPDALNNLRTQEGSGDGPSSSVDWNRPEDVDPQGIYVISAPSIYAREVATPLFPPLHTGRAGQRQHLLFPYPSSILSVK

B1: hDLL3-26 camelid-derived humanized anti-DLL3 antibody (antibody, V domains shown)
VH: EVQLVESGGGLVQPGGSLRLSCAASGDIYSSSYVGWFRQAPGKEREGVAIIYTSGDSTYYADSVKGRFTISRDNSKNTLYLQMNSLRAEDTAVYYCAARFAIDNSNYWGQGTLVTVSS
B2: hDLL3-122 camelid-derived humanized anti-DLL3 antibody (antibody, V domains shown)
VH: EVQLVESGGGLVQPGGSLRLSCAASGDTYRSYCMGWFRQAPGKEREGVADIVSDGSTSYADSVKGRFTISRDNSKNTLYLQMNSLRAEDTAVYYCAVDRGGSGGYCYTGRYDYWGQGTLVTVSS
B3: hDLL3-3-1 camelid-derived humanized anti-DLL3 antibody (antibody, human IgG1, V domains shown)
VH: EVQLVESGGGLVQPGGSLRLSCAASTYTISSGYMGWFRQAPGKEREGVAAIYIGGSTTLYADSVKGRFTISRDNSKNTLYLQMNSLRAEDTAVYYCAAQLRPNSAYHPLDGRKYNYWGQGTLVTVSS
B4: hDLL3-3-2 camelid-derived humanized anti-DLL3 antibody (antibody, V domains shown)
VH: B3 VH with A23K, A24S, S25P
B5: DLL3-3 camelid-derived anti-DLL3 chimeric antibody (antibody, human IgG1, V domains shown)
VH: DVQLVESGGGSVQAGGSLKLSCKSPTYTISSGYMGWFRQAPGKEREGVAAIYIGGSTTLYADSVKGRFTISADNAEKTVYLQMNTLKPEDSAMYYCAAQLRPNSAYHPLDGRKYNYWGQGTQVTVSS
B6: DLL3-26 camelid-derived anti-DLL3 chimeric antibody (antibody, human IgG1, V domains shown)
VH: QVQLVESGGGSVQAGGSLRLSCAASGDIYSSSYVGWFRQAPGKEREGVAIIYTSGDSTYYANSVKGRFTISQDKAKKTLYLQMNSLKPEDTAMYYCAARFAIDNSNYWGQGTQVTVSS
B7: DLL3-122 camelid-derived anti-DLL3 chimeric antibody (antibody, human IgG1, V domains shown)
VH: QVQLVESGGGSVQAGGSLRLSCTASGDTYRSYCMGWFRKAPGKEREGVADIVSDGSTSYADSVKGRFTISKDNAKNTLYLQMNSLKPEDTAMYYCAVDRGGSGGYCYTGRYDYWGQGTQVTVSS

Molecular target: T1, human DLL1 (Sino Biological, Cat. No. …)
Assay: ELISA, plate coated with human DLL1 at 1 ug/mL, OD 450nm
Description: (§1) The antigen was washed three times with PBST, 300 μL/well. The antigen was blocked with 1% BSA (in PBST), 200 μL/well, and incubated at 37° C. for 1.5 hours.
(§2) Antibodies to be tested were diluted with 1% BSA (in PBS) at a starting concentration of 100 nM, downwards by a 10-fold gradient for 7 concentrations. The plates were washed three times with PBST, 300 μL/well. The diluted antibody was added to an ELISA plate at 100 μL/well and incubated at room temperature for 2 hours. The antibodies were washed three times with PBST, 300 μL/well. The secondary antibodies (goat anti-human IgG Fc for DLL4 (HRP), 1:20000 dilution: HRP goat anti-mouse IgG (H+L) for DLL1, 1:10000 dilution) were diluted with 1% BSA in PBST. The diluted secondary antibodies were added to the ELISA plate at 100 μL/well and incubated at room temperature for 1 hour. The plates were washed 6 times with PBST, 300 μL/well. The developing solution (TMA and TMB 1:1 mixed) was prepared. The developing solution was added to the plate, 100 μL/well, and incubated in the dark for 5 min. 50 μL of ELISA stop solution was added to the plate and shaken well.
(§3) OD450s were read on the envision and plotted on the GraphPad for EC₅₀ values.

binding result	Binder
no binding (tested: 100 nM)	B1
no binding (tested: 100 nM)	B2
no binding (tested: 100 nM)	B3
no binding (tested: 100 nM)	B4

Molecular target: T2, human DLL3 on SHP-77 cells
Assay: flow cytometry, SHP-77 cells
Description: Monoclonal selection was performed, and the expression level of DLL3 protein in the monoclonal cells were identified by flow cytometry. The culture was expanded and stored in storage for later use. SHP-77 and HEK293-cyno DLL3 cells were cultured. The culture medium for SHP-77 cells were RPMI1640+10% FBS, and the culture medium for HEK293 cyno DLL3 cells were DMEM+10% FBS+200 μg/ml Hygromycin. The cells were cultured in a T75 cell culture flask at a 37° ° C. in a 5% CO₂ incubator. When using cells, they are washed with sterile DPBS, digested with 0.25% trypsin EDTA for about 5 minutes, and then stopped with a complete medium.
The digested cells were centrifuged at 1000 rpm for 5 min at room temperature. The supernatant was discarded and the cells were resuspended in 100 μL of 1% BSA (in PBS). The cells were counted and adjusted to a cell density of 1E6/m. The dilute cells were seeded in a 96-well round-bottom culture plate (corning 3799), and centrifuged at 1500 rpm for 5 min at 4° C. The supernatant was discarded and the cells were stored at 4° C. until use. Antibody samples to be tested were diluted with 1% BSA (in PBS) at a starting concentration of 100 nM, downwards by a 10-fold gradient for 7 concentrations. The cells were resuspended with the diluted antibody at 100 μL/well and incubated for 1 hour at 4° C. The cells were centrifuged at 1500 rpm for 5 minutes at 4° C. and the supernatant was discarded. The cells were resuspended and washed with 160 μL of 1% BSA (in PBS), centrifuged at 1500 rpm for 5 minutes at 4° C. The supernatant was discarded. The secondary antibody (goat anti human IgG Fc PE) was diluted 1:200 with 1% BSA (in PBS) according to the manufacturer's instructions and the cells were resuspended with the diluted secondary antibody. 100 μL/well, and incubated for 0.5 h at 4° C. The cells were centrifuged at 1500 rpm for 5 minutes at 4° C. and the supernatant was discarded. The cells were resuspended and washed with 160 μL of 1% BSA (in PBS), centrifuged at 1500 rpm for 5 minutes at 4° C. The supernatant was discarded. The cells were resuspended in 100 μL of 1% BSA (in PBS), and filtered across a 300 mesh gauze. The mean fluorescence intensity of the PE channels was measured by flow cytometry.

EC50	Top MFI	Binder
0.047 nM	874 MFI	B5
0.519 nM	821 MFI	B6
0.427 nM	846 MFI	B7

Molecular target: T3, human DLL4 (Sino Biological, Cat. No. 10171-H08H) (human, UniProt Q9NR61 27-529)
T3 construct: also called family protein DLL4
T3 sequence (Q9NR61 27-529 limits assumed): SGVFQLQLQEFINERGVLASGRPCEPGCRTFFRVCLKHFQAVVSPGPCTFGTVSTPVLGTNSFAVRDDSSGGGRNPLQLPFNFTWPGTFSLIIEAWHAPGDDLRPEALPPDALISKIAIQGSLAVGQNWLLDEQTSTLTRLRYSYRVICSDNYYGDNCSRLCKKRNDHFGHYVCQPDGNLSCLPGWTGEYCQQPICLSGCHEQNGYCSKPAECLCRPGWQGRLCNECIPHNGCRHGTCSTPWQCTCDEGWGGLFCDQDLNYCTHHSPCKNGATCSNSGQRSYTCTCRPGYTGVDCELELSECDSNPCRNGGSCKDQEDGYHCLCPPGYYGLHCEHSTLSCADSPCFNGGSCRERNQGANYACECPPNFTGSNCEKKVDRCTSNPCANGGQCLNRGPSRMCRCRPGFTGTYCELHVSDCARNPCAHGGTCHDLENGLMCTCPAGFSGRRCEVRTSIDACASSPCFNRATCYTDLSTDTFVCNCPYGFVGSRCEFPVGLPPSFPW
Assay: ELISA, plate coated with human DLL4 at 1 ug/mL, OD 450nm
Description: as §1, §2, §3

binding result	Binder
no binding (tested: 100 nM)	B1
no binding (tested: 100 nM)	B2
no binding (tested: 100 nM)	B3
no binding (tested: 100 nM)	B4
